Results as given in US20260209316A1 (US Dept. of Health and Human Services, published 2026).

Tests used:
[1] = target: T1, full-length Sudan GP (GPFL) (Sudan virus (SUDV), UniProt Q7T9D9 33-650); test: BLI, Fab, pH 5.3
T1 construct: also called Sudan GPFL; GP(S)FL
T1 sequence: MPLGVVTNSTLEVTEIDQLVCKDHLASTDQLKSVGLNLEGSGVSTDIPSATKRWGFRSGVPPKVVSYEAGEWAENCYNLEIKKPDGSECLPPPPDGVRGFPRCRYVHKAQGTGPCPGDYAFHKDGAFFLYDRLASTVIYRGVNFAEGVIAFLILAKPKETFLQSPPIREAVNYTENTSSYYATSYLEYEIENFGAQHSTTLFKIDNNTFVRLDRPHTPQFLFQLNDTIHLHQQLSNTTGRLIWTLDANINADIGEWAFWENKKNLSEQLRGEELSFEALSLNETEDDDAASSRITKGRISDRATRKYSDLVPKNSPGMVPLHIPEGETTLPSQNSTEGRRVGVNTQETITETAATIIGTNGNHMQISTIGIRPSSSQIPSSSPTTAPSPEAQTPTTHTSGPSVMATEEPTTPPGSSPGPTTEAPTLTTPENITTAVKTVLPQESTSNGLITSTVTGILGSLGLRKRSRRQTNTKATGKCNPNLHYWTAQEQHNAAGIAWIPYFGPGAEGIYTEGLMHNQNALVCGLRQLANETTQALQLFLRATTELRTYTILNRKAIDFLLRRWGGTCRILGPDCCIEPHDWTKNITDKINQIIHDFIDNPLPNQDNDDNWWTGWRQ

[2] = target: T1, full-length Sudan GP (GPFL); test: BLI, Fab, pH 7.4
[3] = target: T2, SUDV GP on pseudotyped lentiviral vector (Sudan virus (SUDV), UniProt Q7T9D9 33-676); test: cell-based or functional assay
T2 sequence: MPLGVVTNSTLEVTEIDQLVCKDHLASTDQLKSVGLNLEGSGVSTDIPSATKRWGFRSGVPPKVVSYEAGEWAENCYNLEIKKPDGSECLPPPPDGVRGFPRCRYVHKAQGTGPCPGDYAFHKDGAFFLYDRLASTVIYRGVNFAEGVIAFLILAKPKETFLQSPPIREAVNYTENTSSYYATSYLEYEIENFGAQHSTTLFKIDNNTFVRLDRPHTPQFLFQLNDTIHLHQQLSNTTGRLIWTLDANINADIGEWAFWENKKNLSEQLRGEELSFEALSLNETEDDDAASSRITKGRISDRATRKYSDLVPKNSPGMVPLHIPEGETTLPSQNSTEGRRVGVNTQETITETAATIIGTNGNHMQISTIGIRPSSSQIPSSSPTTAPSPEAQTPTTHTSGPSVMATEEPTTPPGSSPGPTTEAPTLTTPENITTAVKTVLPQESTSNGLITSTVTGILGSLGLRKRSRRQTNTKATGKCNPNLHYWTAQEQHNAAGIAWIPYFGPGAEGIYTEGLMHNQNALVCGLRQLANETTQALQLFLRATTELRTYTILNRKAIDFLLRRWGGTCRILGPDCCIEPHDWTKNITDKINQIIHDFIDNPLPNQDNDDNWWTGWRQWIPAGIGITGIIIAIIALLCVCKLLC

[4] = target: T3, EBOV GP on pseudotyped lentiviral vector (Ebola (Zaire) virus (EBOV), UniProt Q05320 33-676); test: cell-based or functional assay
T3 sequence: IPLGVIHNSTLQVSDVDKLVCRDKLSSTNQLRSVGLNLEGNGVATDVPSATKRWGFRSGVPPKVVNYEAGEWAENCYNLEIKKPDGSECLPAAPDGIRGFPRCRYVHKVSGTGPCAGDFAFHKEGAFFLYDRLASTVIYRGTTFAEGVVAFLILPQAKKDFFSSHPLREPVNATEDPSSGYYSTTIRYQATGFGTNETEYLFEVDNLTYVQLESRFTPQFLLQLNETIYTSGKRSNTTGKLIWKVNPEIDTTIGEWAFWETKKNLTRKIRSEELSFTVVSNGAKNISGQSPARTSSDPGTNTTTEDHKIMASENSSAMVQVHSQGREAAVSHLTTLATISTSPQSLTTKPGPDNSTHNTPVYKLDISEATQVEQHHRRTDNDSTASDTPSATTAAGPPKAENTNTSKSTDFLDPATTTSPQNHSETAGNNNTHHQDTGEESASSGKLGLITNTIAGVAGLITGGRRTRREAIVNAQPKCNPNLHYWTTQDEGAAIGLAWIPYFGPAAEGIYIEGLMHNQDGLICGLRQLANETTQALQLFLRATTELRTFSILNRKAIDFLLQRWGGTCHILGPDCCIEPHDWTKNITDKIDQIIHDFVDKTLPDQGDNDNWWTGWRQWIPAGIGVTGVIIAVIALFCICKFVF

[5] = target: T1, full-length Sudan GP (GPFL); test: ELISA on coated GP
[6] = target: T4, full-length Zaire GP (GPFL) (Ebola (Zaire) virus (EBOV), UniProt Q05320 33-632); test: ELISA on coated GP
T4 construct: also called Zaire GPFL; GP(Z)FL
T4 sequence: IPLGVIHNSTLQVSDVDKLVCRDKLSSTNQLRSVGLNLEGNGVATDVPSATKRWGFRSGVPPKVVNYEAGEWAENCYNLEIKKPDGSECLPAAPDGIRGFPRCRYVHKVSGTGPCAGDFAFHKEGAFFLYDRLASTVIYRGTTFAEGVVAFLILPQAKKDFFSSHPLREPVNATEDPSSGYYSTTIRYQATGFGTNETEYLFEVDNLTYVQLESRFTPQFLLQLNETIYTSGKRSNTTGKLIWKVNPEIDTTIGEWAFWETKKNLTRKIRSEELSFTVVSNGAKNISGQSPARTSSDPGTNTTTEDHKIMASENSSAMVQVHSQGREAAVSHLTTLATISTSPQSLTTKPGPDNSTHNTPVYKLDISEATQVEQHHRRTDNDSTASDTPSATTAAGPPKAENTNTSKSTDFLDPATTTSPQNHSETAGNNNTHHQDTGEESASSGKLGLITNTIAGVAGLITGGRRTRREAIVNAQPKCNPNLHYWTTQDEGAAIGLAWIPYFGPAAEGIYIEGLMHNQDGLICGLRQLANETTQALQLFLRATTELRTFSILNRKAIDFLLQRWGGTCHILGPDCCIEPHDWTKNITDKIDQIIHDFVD

[7] = target: T1, full-length Sudan GP (GPFL); test: BLI, Fab, pH 5.3; remark: listed apart in the source
[8] = target: T1, full-length Sudan GP (GPFL); test: BLI, Fab, pH 7.4; remark: listed apart in the source
[9] = target: T4, full-length Zaire GP (GPFL); test: BLI, Fab, pH 7.4

B1: Fab generated from 291S (Fab, V domains shown)
VH: QVQLQESGPGLVKPSQTLSLTCTVSGGSFSSGFYWSWIRQRPGKGLEWVGYTYYSGSTYYNPSLQSRVTISVDTSKNQFSLNLSSVTAADTAVYHCARADYGGLFDYWGQGILVTVSS
VL: QSVLTQPSSLSASPGASASLTCTLRSGINVGTYRIFWYQQKPGSPPQFLLRYNSDSDKQQGSGVPSRFSGSKDASANAGILLISGLQSEDEADYYCMIWHTSAWVFGGGTKLTVL
Kd [1]: 4.27 nM | koff [1]: 0.00011 s⁻¹ | kon [1]: 25700 M⁻¹ s⁻¹ | Kd [2]: 2.97 nM | koff [2]: 0.000131 s⁻¹ | kon [2]: 44200 M⁻¹ s⁻¹

B2: antibody 191L (antibody, V domains shown)
VH: EVQLVESGGGLVQPGGSLRLSCAASGFTFSSYGIHWVRQAPGKGLEWVAIISYDGNKKFHADSVKDRFTISRDNSKNMLYLQMNNLKLEDTAVYYCARAYDSGYFAGSVFYYWGQGVLVTVSS
VL: EVVFTQPHSVSGSPGQTVTISCTRSSGSIDSEYVQWYQQRPGNAPTTVIYKDNQRPSGVPDRFSGSIDSSSNSASLAISGLKSEDEADYYCQSADGNYHPVFGEGTRLTVL
IC50, microneutralization of GP-pseudotyped lentiviral vector on HEK293 cells [3]: > 10 µg/mL | IC50, microneutralization of GP-pseudotyped lentiviral vector on HEK293 cells [4]: > 10 µg/mL | EC50 [5]: 0.02 µg/mL | EC50 [6]: 0.01 µg/mL

B3: antibody 231L (antibody, V domains shown)
VH: EVQLVESGGGLVQPGGSLRLSCAASAFTFDDYAMHWVRQAPGKGLEWVSGITWSGLSTYYADSVKGRFTISRDNAKNSLYLQMNSLRVEDTALYYCAKSGNNSPFSGLDSWGQGAVVTVSS
VL: QSVLTQPPSVSGAPGQRVTVSCTGSSSNIGAGSYVQWYQQLPGTAPKLLIYENNKRPSGVSDRFSGSKSGTSASLTITGLQSEDEADYYCQSYDSSLNAYIFGAGTRLTVL
IC50, microneutralization of GP-pseudotyped lentiviral vector on HEK293 cells [3]: > 10 µg/mL | IC50, microneutralization of GP-pseudotyped lentiviral vector on HEK293 cells [4]: > 10 µg/mL | EC50 [5]: 0.4 µg/mL | EC50 [6]: 0.002 µg/mL

B4: Fab generated from 316L (Fab, V domains shown)
VH: EERLVESGGGLVQPGGSLRLSCAASGFTFGDYAMHWVRQVPGKSLEWLSGISWSGYTTYSADSVKGRFTISRDNAKNSLYLQMNRLRPEDTGLYYCVTLIGAIGIKDSLDVWGRGVLVTVSS
VL: QSVLTQPPSVSGAPGQRVTVSCSGSSSNIGAGNYVQWYQQLPGTAPKVLIYQTEKRPSGTSDRFSGSKSDTSASLTINGLQSEDEADYYCQVYDSNLNGWVFGGGTRLTVL
notes: also called 316L Fab
Kd [7]: 1.26 nM | koff [7]: 0.000139 s⁻¹ | kon [7]: 110000 M⁻¹ s⁻¹ | Kd [8]: 1.16 nM | koff [8]: 0.000157 s⁻¹ | kon [8]: 135000 M⁻¹ s⁻¹ | Kd [9]: 38.1 nM | koff [9]: 0.00263 s⁻¹ | kon [9]: 69000 M⁻¹ s⁻¹

B5: Fab generated from 380L (Fab, V domains shown)
VH: EVQLVESGGGLVQPGGSLTLSCAASGFTFGDYVMHWVRQVPGRGLEWLSAVSWSGYTTYSADSVKGRFTISRDNAKNSLYLQMSRLGTADTGLYYCVTLIGAIGIRDSFDAWGRGVLVTVSS
VL: QSVLTQPPSMSGAPGQRVTVSCTGSSSNIGAGNYVQWYQQLPGTAPKVLIYQTDKRPSGISDRFSGSKSGTSASLTISGLQSEDEADYYCQVYDSSLNGWVFGGGTRLTVL
notes: also called 380L Fab
Kd [7]: 3.87 nM | koff [7]: 0.000326 s⁻¹ | kon [7]: 84200 M⁻¹ s⁻¹ | Kd [8]: 2.85 nM | koff [8]: 0.00029 s⁻¹ | kon [8]: 101000 M⁻¹ s⁻¹ | Kd [9]: 19.8 nM | koff [9]: 0.00148 s⁻¹ | kon [9]: 63000 M⁻¹ s⁻¹

B6: antibody 206L (antibody, V domains shown)
VH: EVQLVESGGGVVQPGGSLRLSCAASGFTFDDYAMHWVRQAPGKGLEWVSGISWSGGNTYYADSVKGRFTVSRENAKNSLYLQMNRLRAEDTAFYNCARTSQGGAVVFSAPNYWGQGVLVTVSS
VL: QSVLTQAPSVSGAPGQRVTISCTGSSSNIGGYYVQWYQQLPGRAPKLLIYENNKRPSGVSDRFSGSRSASSASLTITGLQSEDEADYYCQSYDSRLNGYIFGGGTRLTVL
IC50, microneutralization of GP-pseudotyped lentiviral vector on HEK293 cells [3]: > 10 µg/mL | IC50, microneutralization of GP-pseudotyped lentiviral vector on HEK293 cells [4]: > 10 µg/mL | EC50 [5]: 2.58 µg/mL | EC50 [6]: 0.001 µg/mL

B7: antibody 310L (antibody, V domains shown)
VH: EMQLVESGGGLVQPGGSLRLSCAASGFTFDAYAMHWVRQRPGKGLEWISGIIWSGRTTYYADSVKGRFTFSRDNSKNSLYLEMNSLKPEDTALYYCAKDSWNYGVYNSLDVWGRGILVTVSS
VL: QSVLTQPPSVSGAPGQRVTISCTGSSSNVGPHYVSWYQHLPGTTPKLLIFQDNKRPSGVSDRFSGSKSASSASLTITGLQTEDEADYYCLSYDSSLNVYIFGSGTRLTVL
IC50, microneutralization of GP-pseudotyped lentiviral vector on HEK293 cells [3]: > 10 µg/mL | IC50, microneutralization of GP-pseudotyped lentiviral vector on HEK293 cells [4]: > 10 µg/mL | EC50 [5]: 0.04 µg/mL | EC50 [6]: 0.01 µg/mL

B8: antibody 232L (antibody, V domains shown)
VH: KSQLVESGGGLVQPGGSLRLSCAASGFTFDAYAMHWVRQAPGEGLEWVTAISWSGSSTYYADSVKGRFTFSRDNAKNSLYLEMNSLRADDTAFYYCVKGGVYNWFDVWGPGVLVTVSS
VL: QSVLTQPPSVSGAPGQRVTISCTGSRSNIGGYYVSWYQQFPGTTPKLLIYQDNKRPSGVSDRFSGSKSGTSASLTITGLQTEDEADYYCLSYDSSLNGWVFGGGTRLTVL
IC50, microneutralization of GP-pseudotyped lentiviral vector on HEK293 cells [3]: > 10 µg/mL | IC50, microneutralization of GP-pseudotyped lentiviral vector on HEK293 cells [4]: > 10 µg/mL | EC50 [5]: 0.09 µg/mL | EC50 [6]: 0.08 µg/mL
